Consider 3 molecules from US20200255528A1 (Five Prime, published 2020).

Test [1] has as its target T1, recombinant human B7-H4-huIgG1 (human).
T1 construct: the entry begins with the N-terminal leader (MASLG...), no cleavage site is stated; also called B7-H4-hulgGl; B7-H4-extracellular domain (ECD)
The test is described as follows: BLI and SPR.

The next test has as its target T2, human B7-H4 on cells (human, UniProt Q7Z7D3 25-282).
T2 construct: Full-length human B7-H4 on transfected HEK293T cells (also aAPCs) or endogenous on SK-BR-3 breast cancer cells; also called SK-BR-3 (endogenous human B7-H4)
T2 sequence: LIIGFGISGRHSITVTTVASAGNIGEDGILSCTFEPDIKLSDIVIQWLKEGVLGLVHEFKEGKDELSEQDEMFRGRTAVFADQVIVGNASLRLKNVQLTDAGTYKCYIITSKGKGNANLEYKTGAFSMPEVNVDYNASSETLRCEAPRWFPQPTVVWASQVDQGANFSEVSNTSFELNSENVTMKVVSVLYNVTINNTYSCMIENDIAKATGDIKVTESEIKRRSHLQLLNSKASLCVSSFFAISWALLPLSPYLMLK
The test is described as follows: flow cytometry titration on SK-BR-3 cells (endogenous human B7-H4), GEO MFI against antibody concentration. Background: A flow cytometer gives signals particle by particle.

A further test concerns the target T3, mouse B7-H4 on cells (mouse, UniProt Q7TSP5 25-257).
T3 construct: Full-length, on transfected HEK293T cells
T3 sequence: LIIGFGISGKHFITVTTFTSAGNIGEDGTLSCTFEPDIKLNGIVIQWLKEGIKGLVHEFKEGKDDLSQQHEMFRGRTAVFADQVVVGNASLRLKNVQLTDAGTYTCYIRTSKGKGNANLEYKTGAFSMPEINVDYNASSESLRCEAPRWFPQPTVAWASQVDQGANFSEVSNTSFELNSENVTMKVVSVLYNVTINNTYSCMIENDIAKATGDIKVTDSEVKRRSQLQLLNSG
Nature of the test: flow cytometry titration on HEK293T cells transfected with mouse B7-H4 (293-mouseB7-H4), GEO MFI against antibody concentration.

In test [2] the target is T4, cynomolgus monkey B7-H4 on cells (cynomolgus monkey, UniProt Q7Z7D3 25-282 (human entry)).
T4 construct: Full-length, on transfected HEK293T cells
T4 chain: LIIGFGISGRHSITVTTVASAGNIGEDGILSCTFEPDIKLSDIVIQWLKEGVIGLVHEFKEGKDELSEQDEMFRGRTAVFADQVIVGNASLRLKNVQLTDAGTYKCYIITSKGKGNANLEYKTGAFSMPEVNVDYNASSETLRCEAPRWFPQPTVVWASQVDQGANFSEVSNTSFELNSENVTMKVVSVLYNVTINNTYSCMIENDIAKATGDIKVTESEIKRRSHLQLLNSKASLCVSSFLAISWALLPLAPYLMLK
Nature of the test: flow cytometry titration on HEK293T cells transfected with cynomolgus monkey B7-H4 (293-cynoB7-H4), GEO MFI against antibody concentration.
Method: (§1) Following incubation, cells were pelleted, washed and incubated with a secondary labeling antibody and samples were acquired on a flow cytometer. Data was analyzed using the FlowJo software and MFI was plotted vs. antibody concentration. The EC50 cell binding potency was calculated using nonlinear regression curve fit (GraphPad Prism).

Another test deals with T5, rat B7-H4 on cells (rat, UniProt Q501W4 25-257).
T5 construct: Full-length, on transfected HEK293T cells
T5 sequence: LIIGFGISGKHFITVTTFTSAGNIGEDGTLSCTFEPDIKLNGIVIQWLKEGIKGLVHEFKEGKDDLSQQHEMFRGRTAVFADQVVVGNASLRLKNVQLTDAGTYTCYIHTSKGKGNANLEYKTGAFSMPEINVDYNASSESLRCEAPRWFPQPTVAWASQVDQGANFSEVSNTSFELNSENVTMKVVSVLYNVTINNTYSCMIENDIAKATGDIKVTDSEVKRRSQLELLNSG
The test is described as follows: flow cytometry titration on HEK293T cells transfected with rat B7-H4 (293-ratB7-H4), GEO MFI against antibody concentration.

Method for human B7-H4 on cells: as §1
Method for mouse B7-H4 on cells: as §1
Method for rat B7-H4 on cells: as §1

B1: antibody 15483 (antibody, human IgG1, kappa, V domains shown)
VH: QVQLQESGPGLVKPSQTLSLTCTVSGGSISSGGYYWSWIRQHPGKGLEWIGNIYYSGSTYYNPSLKSRVTISVDTSKNQFSLKLSSVTAADTAVYYCARGLSTIDEAFDPWGQGTLVTVSS
VL: not shown
notes: human IgG1/kappa
As to B1, in test [1], the binding result is listed as “binds”.

B2: antibody 20506 (antibody, V domains shown)
VH: QLQLQESGPGLVKPSETLSLTCTASGGSISHGGYYWSWIRQHPGKGLEWIGNIYYSGSTYYNPSLKSRVTMSVDTSKNQFSLKLSSVTAADTAVYYCARESSTISADFDLWGRGTLVTVSS
VL: DIQMTQSPSSVSASVGDRVTITCRASQGISRWLAWYQQKPGKAPKLLIYAASSLQSGVPSRFSGSGSGTDFTLTISSLQPEDFATYYCQQAHTFPYTFGGGTKVEIKR
notes: human IgG1/kappa
Regarding B2, the 50% effective concentration (EC50 (read off the curve)) (as a rule, the midpoint of the concentration-response curve) with human B7-H4 on cells is about 2 nM; in the test with mouse B7-H4 on cells it was about 8 nM; in test [2], about 5 nM. Besides, the binding result in the test with rat B7-H4 on cells is “binds”.

B3: antibody 15462 (antibody, human IgG1, kappa, V domains shown)
VH: QLQLQESGPGLVKPSETLSLTCTVSGGSISSSSYYWGWIRQPPGKGLEWIGNIYYSGSTYYNPSLKSRVTISVDTSKNQFSLKLSSVTAADTAVYYCAREGSYTTVLNVWGQGTMVTVSS
VL: EIVLTQSPGTLSLSPGERATLSCRASQSVSSSYLAWYQQKPGQAPRLLIYGASSRATGIPDRFSGSGSGTDFTLTISRLEPEDFAVYYCQQAASYPLTFGGGTKVEIKR
notes: human IgG1/kappa
With B3, the binding result in test [1] is “binds”.
